15 variants from the RNAGym collection of RNA variant scans (doi:10.1093/molbev/msab373) can be followed below.

Sequences and labels used below:
B1: Azoarcus group I ribozyme (parent)
chain: GUGCCUUGCGCCGGGAAACCACGCAAGGGAUGGUGUCAAAUUCGGCGAAACCUAAGCGCCCGCCCGGGCGUAUGGCAACGCCGAGCCAAGCUUCGGCGCCUGCGCCGAUGAAGGUGUAGAGACUAGACGGCACCCACCUAAGGCAAACGCUAUGGUGAAGGCAUAGUCCAGGGAGUGGCGAAAGUCACACAAACCGG

The series covers variants of B1. Nature of the series: reverse-splicing fitness (ratio to wild type); higher = more active; in vitro selection; Mg2+ level not given. The method in brief: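 An in vitro group I ribozyme library with randomized positions was T7-transcribed and gel-purified. In triplicate, 10 pmol RNA in EPPS pH 7.5 was reacted with 50 pmoles of a 30-nt RNA substrate for 1 h at 37 °C across several added MgCl2 levels (1–48 mM), then stopped with EDTA. Products were reverse transcribed from a substrate-complementary primer, PCR-amplified and sequenced (HiSeq 4000). Fitness is a variant's read proportion after selection over that before, normalised to wild type.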
For the variant GUGCCUUGCGCCGGGAAACCACGCAAGGGAUGGUGUCAAAUUCGGCGAAACCUAAGCGCCCGCCCGGGCGUAUGGCAACGCGGAGCCAAGCUUCGGCGCCUGCGCCGAUGAAGGUGUAGAGACUAGACGGCACCCACCUAAGGCAAACGCUAUGGUGAAGGCAUAGUCAAGGGAGGGGCGAAAGUCACACAAACCGG, the reverse-splicing fitness came out at 0.00463.

As to GUGCCUUGCGCCGGGAAACCACGCAAGGGAUGGUGUCAAAUUCGGCGAAACCUAAGCGCCCGCCCGGGCGUAUGGCAACGCGGAGCCAAGCUUCGGCGCCUGCGCCGAUGAAGGUGUAGAGACUAGACGGCACCCACCUAAGGCAAACGCUAUGGUGAAGGCAUAGUCAAGGGAGCGGCGAAAGUCACACAAACCGG, the reverse-splicing fitness amounted to 0.0165.

Regarding GUGCCUUGCGCCGGGAAACCACGCAAGGGAUGGUGUCAAAUUCGGCGAAACCUAAGCGCCCGCCCGGGCGUAUGGCAACGCGGAGCCAAGCUUCGGCGCCUGCGCCGAUGAAGGUGUAGAGACUAGACGGCACCCACCUAAGGCAAACGCUAUGGUGAAGGCAUAGUCAAGGGAGAGGCGAAAGUCACACAAACCGG, the reverse-splicing fitness was determined as 0.0146.

On to GUGCCUUGCGCCGGGAAACCACGCAAGGGAUGGUGUCAAAUUCGGCGAAACCUAAGCGCCCGCCCGGGCGUAUGGCAACGCUGAGCCAAGCUUCGGCGCCUGCGCCGAUGCAGGUGUAGCGACUAGACGGCACCCACCUAAGGCCAACGAUAUGGUGAAGGCAUAGUCGAGGGAGGGGCGAAAGUCACACAAACCGG, for which the reverse-splicing fitness is 0.00588.

Regarding GUGCCUUGCGCCGGGAAACCACGCAAGGGAUGGUGUCAAAUUCGGCGAAACCUAAGCGCCCGCCCGGGCGUAUGGCAACGCUGAGCCAAGCUUCGGCGCCUGCGCCGAUGCAGGUGUAGCGACUAGACGGCACCCACCUAAGGCCAACGAUAUGGUGAAGGCAUAGUCGAGGGAGCGGCGAAAGUCACACAAACCGG, the reverse-splicing fitness was determined as 0.0151.

GUGCCUUGCGCCGGGAAACCACGCAAGGGAUGGUGUCAAAUUCGGCGAAACCUAAGCGCCCGCCCGGGCGUAUGGCAACGCUGAGCCAAGCUUCGGCGCCUGCGCCGAUGCAGGUGUAGCGACUAGACGGCACCCACCUAAGGCCAACGAUAUGGUGAAGGCAUAGUCGAGGGAGAGGCGAAAGUCACACAAACCGG: the reverse-splicing fitness was found to be 0.0253.

As to GUGCCUUGCGCCGGGAAACCACGCAAGGGAUGGUGUCAAAUUCGGCGAAACCUAAGCGCCCGCCCGGGCGUAUGGCAACGCUGAGCCAAGCUUCGGCGCCUGCGCCGAUGCAGGUGUAGCGACUAGACGGCACCCACCUAAGGCCAACGCUAUGGUGAAGGCAUAGUCCAGGGAGUGGCGAAAGUCACACAAACCGG, the reverse-splicing fitness is 0.0222.

Consider GUGCCUUGCGCCGGGAAACCACGCAAGGGAUGGUGUCAAAUUCGGCGAAACCUAAGCGCCCGCCCGGGCGUAUGGCAACGCUGAGCCAAGCUUCGGCGCCUGCGCCGAUGCAGGUGUAGAGACUAGACGGCACCCACCUAAGGCAAACGCUAUGGUGAAGGCAUAGUCCAGGGAGUGGCGAAAGUCACACAAACCGG, for which the reverse-splicing fitness was found to be 0.251.

Regarding GUGCCUUGCGCCGGGAAACCACGCAAGGGAUGGUGUCAAAUUCGGCGAAACCUAAGCGCCCGCCCGGGCGUAUGGCAACGCUGAGCCAAGCUUCGGCGCCUGCGCCGAUGCAGGUGUAGCGACUAGACGGCACCCACCUAAGGCCAACGAUAUGGUGAAGGCAUAGUCCAGGGAGUGGCGAAAGUCACACAAACCGG, the reverse-splicing fitness was determined as 0.0072.

In the case of GUGCCUUGCGCCGGGAAACCACGCAAGGGAUGGUGUCAAAUUCGGCGAAACCUAAGCGCCCGCCCGGGCGUAUGGCAACGCUGAGCCAAGCUUCGGCGCCUGCGCCGAUGCAGGUGUAGCGACUAGACGGCACCCACCUAAGGCCAACGAUAUGGUGAAGGCAUAGUCAAGGGAGAGGCGAAAGUCACACAAACCGG, the reverse-splicing fitness worked out at 0.0113.

Take GUGCCUUGCGCCGGGAAACCACGCAAGGGAUGGUGUCAAAUUCGGCGAAACCUAAGCGCCCGCCCGGGCGUAUGGCAACGCUGAGCCAAGCUUCGGCGCCUGCGCCGAUGCAGGUGUAGCGACUAGACGGCACCCACCUAAGGCCAACGAUAUGGUGAAGGCAUAGUCAAGGGAGGGGCGAAAGUCACACAAACCGG: the reverse-splicing fitness worked out at 0.00679.

For the variant GUGCCUUGCGCCGGGAAACCACGCAAGGGAUGGUGUCAAAUUCGGCGAAACCUAAGCGCCCGCCCGGGCGUAUGGCAACGCUGAGCCAAGCUUCGGCGCCUGCGCCGAUGCAGGUGUAGCGACUAGACGGCACCCACCUAAGGCCAACGAUAUGGUGAAGGCAUAGUCAAGGGAGCGGCGAAAGUCACACAAACCGG, the reverse-splicing fitness stood at 0.00754.

For the variant GUGCCUUGCGCCGGGAAACCACGCAAGGGAUGGUGUCAAAUUCGGCGAAACCUAAGCGCCCGCCCGGGCGUAUGGCAACGCGGAGCCAAGCUUCGGCGCCUGCGCCGAUGAAGGUGUAGAGACUAGACGGCACCCACCUAAGGCAAACGCUAUGGUGAAGGCAUAGUCUAGGGAGUGGCGAAAGUCACACAAACCGG, the reverse-splicing fitness is 0.017.

For the variant GUGCCUUGCGCCGGGAAACCACGCAAGGGAUGGUGUCAAAUUCGGCGAAACCUAAGCGCCCGCCCGGGCGUAUGGCAACGCGGAGCCAAGCUUCGGCGCCUGCGCCGAUGAAGGUGUAGAGACUAGACGGCACCCACCUAAGGCAAACGCUAUGGUGAAGGCAUAGUCGAGGGAGUGGCGAAAGUCACACAAACCGG, the reverse-splicing fitness was 0.0111.

Consider GUGCCUUGCGCCGGGAAACCACGCAAGGGAUGGUGUCAAAUUCGGCGAAACCUAAGCGCCCGCCCGGGCGUAUGGCAACGCGGAGCCAAGCUUCGGCGCCUGCGCCGAUGAAGGUGUAGAGACUAGACGGCACCCACCUAAGGCAAACGCUAUGGUGAAGGCAUAGUCAAGGGAGUGGCGAAAGUCACACAAACCGG, for which the reverse-splicing fitness stood at 0.00968.
